Patent US20180243665A1

Legend:
[1] = target: monoclonal IgG antibody in clarified CHO cell supernatant; test: affinity chromatography, 3-column PCC, 1.5 g/L mAb feed, 45% breakthrough, 0.5 min residence time
[2] = target: monoclonal IgG antibody in clarified CHO cell supernatant; test: affinity chromatography, 3-column PCC, undiluted supernatant feed, 2.5 min residence time, column switch at 5% breakthrough

dynamic capacity [1]: 43 g/L
dynamic binding capacity [2]: 54 g/L
Substance: SpA variant ligands (tetramers of Zvar), covalently coupled via a C-terminal cysteine to crosslinked agarose beads (designed binder)
